Data as given in patent publication US7063946B2, “Methods, reagents, kits and apparatus for protein function analysis” (Meso Scale Technologies, LLC., priority 2001, dated 2006).
One block for each molecule: values may come before it.

Tests used:
Type in all cases: biochemical
[1] = test system: pEY (poly Glu-Tyr); assay: Tyrosine kinase activity assay of immobilized in vitro translated protein towards pEY
Procedure: Proteins were produced in an in vitro transcription and translation reaction. […] The unbound components of the reaction containing endogenous kinases were removed by three washes with TT-buffer (25 mM Tris-HCl buffer pH 7.4 and 0.004% Triton), two five minutes washings with high-salt wash buffer (25 mM Tris-HCl buffer pH 7.4, 0.004% Triton, 1M NaCl and 5 mM DTT) and 3 more washes with TT-buffer. To these immobilized and purified proteins a tyrosine kinase substrate, 5 nM pEY (poly Glu-Tyr, Sigma, MO), was added in a 50 μl reaction solution containing 5 mM MgCl2, 5 mM MnCl2, 100 μM ATP, 25 mM Tris-HCl buffer pH 7.4, 0.05 mM Na3VO4, 0.004% TritonX-100, 2 mM DTT and EDTA-free protease inhibitor (Roche Molecular Biochemicals). This mixture was incubated with shaking at room temperature overnight to allow phosphorylation of the pEY substrate by the immobilized kinases. Following this incubation, 45 μl of this mixture was transferred to a streptavidin or avidin-coated NPT IPR plate coated with biotinylated anti-phosphotyrosine antibody (PY20, Zymed labs, CA) followed by incubation for 30 minutes at room temperature to allow the binding of the phosphorylated pEY substrate to the PY20 coated NPT plate. Following this binding step, 50 ng Sulfo-TAG labeled anti-phosphotyrosine in buffer containing 25 mM Tris-HCl buffer pH 7.4, 5 mM MgCl2, 0.05 mM Na3VO4, 0.004% TritonX-100, 2 mM DTT and 0.05% IgG was added followed by incubation at room temperature for 30 mm. The unbound reagents were removed by one time washing with water, and the TAG label was detected in presence of 150 μl IPR assay buffer (0.4 mM Gly-Gly buffer, pH 7.8, 1 mM EDTA, 0.1 M TPA). The ECL signals were measured using an imaging plate reader.

[2] = test system: pEY; assay: In vitro kinase library screen: activity towards pEY; conditions: 5 ul of expressed protein
Method in brief: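 ECL read-out: phosphorylated poly(Glu-Tyr) bound on a PY20-coated plate, then probed with Sulfo-TAG-labelled anti-phosphotyrosine. The reaction beforehand ran overnight at room temperature with 100 µM ATP, 5 mM MgCl2, 5 mM MnCl2 and 5 nM pEY substrate. Enzymes were TnT-expressed, biotinylated and immobilised, with stringent washes.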

[3] = test system: autophosphorylation (phosphotyrosine); assay: In vitro kinase library screen: autophosphorylation
Method in brief: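 ECL read-out after 45 min with Sulfo-TAG anti-phosphotyrosine antibody. Before that, immobilized in vitro-translated biotinylated SYK or EphA7 autophosphorylated overnight at room temperature in Tris pH 7.4 containing 100 μM ATP plus Mn++ and Mg++ (5 mM each).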

fold higher ECL signal than background produced by Mock (Luciferase) ([1]; 0.5 to 1 μl of TnT reaction): 1000 to 1100 fold
ECL signal ([1]; +EDTA): 1,287
ECL signal ([1]; Control (Table 9)): 1,637,307
ECL signal ([1]; DNA 0.001 μg/5 μl): 4,432
ECL signal ([1]; DNA 0.003 μg/5 μl): 129,797
ECL signal ([1]; DNA 0.010 μg/5 μl): 1,440,103
ECL signal ([1]; DNA 0.020 μg/5 μl): 1,463,489
ECL signal ([1]; DNA 0.040 μg/5 μl): 1,523,121
ECL signal ([1]; DNA 0.060 μg/5 μl): 1,553,370
ECL signal ([1]; DNA 0.080 μg/5 μl): 1,608,671
ECL signal ([1]; DNA 0.100 μg/5 μl): 1,687,039
ECL signal ([1]; DNA 0.125 μg/5 μl): 1,626,868
ECL signal ([1]; complete reaction): 1,608,671
ECL signal ([1]; no Mg, no Mn): 2,851
ECL signal ([1]; plasmid +, no pEY): 1,309
ECL signal ([1]; plasmid +, no tRNA): 1,752
HTS signal [2]: 952,661
ECL signal [3]: 1,350,546
B1: 4485050: IMAGE clone protein: Fert2, fer (fms/fps related) protein kinase, testis specific 2 (protein, UniProt P70451 1-823, looked up)
Tyrosine-protein kinase Fer: MGFGSDLKNSQEAVLKLQDWELRLLETVKKFMALRIKSDKEYAYTLQNLCNQVDKESTVQVNYVSNVSKSWLLMIQQTEQLSRIMKTHAEDLNSGPLHRLTMMIKDKQQVKKSYVGIHQQIEAEMIKVTKTELEKLKSSYRQLIKEMNSAKEKYKEALAKGKETEKAKERYDKATMKLHMLHNQYVLALKGAQLHQSQYYDTTLPLLLDSVQKMQEEMIKALKGIFDDYSQITSLVTEEIVNVHKEIQMSVEQIDPSTEYNNFIDVHRTTAAKEQEIEFDTSLLEENENLQANEIMWNNLTADSLQVMLKTLAEELTQTQQMLLHKEAAVLELEKRIEESFETCEKKSDIVLLLGQKQALEELKQSVQQLRCTEAKCAAQKALLEQKVQENDGKEPPPVVNYEEDARSVTSMERKERLSKFESIRHSIAGIIKSPKSVLGSSTQVCDVISVGERPLAEHDWYHGAIPRIEAQELLKQQGDFLVRESHGKPGEYVLSVYSDGQRRHFIIQFVDNLYRFEGTGFSNIPQLIDHHFNTKQVITKKSGVVLLNPIPKDKKWVLNHEDVSLGELLGKGNFGEVYKGTLKDKTPVAIKTCKEDLPQELKIKFLQEAKILKQYDHPNIVKLIGVCTQRQPVYIIMELVPGGDFLTFLRKRKDELKLKQLVRFSLDVAAGMLYLESKNCIHRDLAARNCLVGENNTLKISDFGMSRQEDGGVYSSSGLKQIPIKWTAPEALNYGRYSSESDVWSFGILLWETFSLGVCPYPGMTNQQAREQVERGYRMSAPQNCPEEVFTIMMKCWDYKPENRPKFNDLHKELTVIKKMIT

HTS signal [2]: 10,287
ECL signal [3]: 84,706
B2: 3482498: IMAGE clone protein: Tek, endothelial-specific receptor tyrosine kinase (protein, UniProt Q02858 23-1122, looked up)
Angiopoietin-1 receptor: AMDLILINSLPLVSDAETSLTCIASGWHPHEPITIGRDFEALMNQHQDPLEVTQDVTREWAKKVVWKREKASKINGAYFCEGRVRGQAIRIRTMKMRQQASFLPATLTMTVDRGDNVNISFKKVLIKEEDAVIYKNGSFIHSVPRHEVPDILEVHLPHAQPQDAGVYSARYIGGNLFTSAFTRLIVRRCEAQKWGPDCSRPCTTCKNNGVCHEDTGECICPPGFMGRTCEKACEPHTFGRTCKERCSGPEGCKSYVFCLPDPYGCSCATGWRGLQCNEACPSGYYGPDCKLRCHCTNEEICDRFQGCLCSQGWQGLQCEKEGRPRMTPQIEDLPDHIEVNSGKFNPICKASGWPLPTSEEMTLVKPDGTVLQPNDFNYTDRFSVAIFTVNRVLPPDSGVWVCSVNTVAGMVEKPFNISVKVLPEPLHAPNVIDTGHNFAIINISSEPYFGDGPIKSKKLFYKPVNQAWKYIEVTNEIFTLNYLEPRTDYELCVQLARPGEGGEGHPGPVRRFTTASIGLPPPRGLSLLPKSQTALNLTWQPIFTNSEDEFYVEVERRSLQTTSDQQNIKVPGNLTSVLLSNLVPREQYTVRARVNTKAQGEWSEELRAWTLSDILPPQPENIKISNITDSTAMVSWTIVDGYSISSIIIRYKVQGKNEDQHIDVKIKNATVTQYQLKGLEPETTYHVDIFAENNIGSSNPAFSHELRTLPHSPASADLGGGKMLLIAILGSAGMTCITVLLAFLIMLQLKRANVQRRMAQAFQNREEPAVQFNSGTLALNRKAKNNPDPTIYPVLDWNDIKFQDVIGEGNFGQVLKARIKKDGLRMDAAIKRMKEYASKDDHRDFAGELEVLCKLGHHPNIINLLGACEHRGYLYLAIEYAPHGNLLDFLRKSRVLETDPAFAIANSTASTLSSQQLLHFAADVARGMDYLSQKQFIHRDLAARNILVGENYIAKIADFGLSRGQEVYVKKTMGRLPVRWMAIESLNYSVYTTNSDVWSYGVLLWEIVSLGGTPYCGMTCAELYEKLPQGYRLEKPLNCDDEVYDLMRQCWREKPYERPSFAQILVSLNRMLEERKTYVNTTLYEKFTYAGIDCSAEEAA

HTS signal [2]: 296,481
ECL signal [3]: 180,059
B3: 2654352: IMAGE clone protein: Fgfr2, fibroblast growth factor receptor 2 (protein, UniProt P21803 22-821, looked up)
Fibroblast growth factor …: RPSFSLVEDTTLEPEEPPTKYQISQPEAYVVAPGESLELQCMLKDAAVISWTKDGVHLGPNNRTVLIGEYLQIKGATPRDSGLYACTAARTVDSETWIFMVNVTDAISSGDDEDDTDSSEDVVSENRSNQRAPYWTNTEKMEKRLHACPAANTVKFRCPAGGNPTSTMRWLKNGKEFKQEHRIGGYKVRNQHWSLIMESVVPSDKGNYTCLVENEYGSINHTYHLDVVERSPHRPILQAGLPANASTVVGGDVEFVCKVYSDAQPHIQWIKHVEKNGSKNGPDGLPYLKVLKAAGVNTTDKEIEVLYIRNVTFEDAGEYTCLAGNSIGISFHSAWLTVLPAPVREKEITASPDYLEIAIYCIGVFLIACMVVTVIFCRMKTTTKKPDFSSQPAVHKLTKRIPLRRQVTVSAESSSSMNSNTPLVRITTRLSSTADTPMLAGVSEYELPEDPKWEFPRDKLTLGKPLGEGCFGQVVMAEAVGIDKDKPKEAVTVAVKMLKDDATEKDLSDLVSEMEMMKMIGKHKNIINLLGACTQDGPLYVIVEYASKGNLREYLRARRPPGMEYSYDINRVPEEQMTFKDLVSCTYQLARGMEYLASQKCIHRDLAARNVLVTENNVMKIADFGLARDINNIDYYKKTTNGRLPVKWMAPEALFDRVYTHQSDVWSFGVLMWEIFTLGGSPYPGIPVEELFKLLKEGHRMDKPTNCTNELYMMMRDCWHAVPSQRPTFKQLVEDLDRILTLTTNEEYLDLTQPLEQYSPSYPDTSSSCSSGDDSVFSPDPMPYEPCLPQYPHINGSVKT

HTS signal [2]: 9,164
ECL signal [3]: 88,966
B4: 2644960: IMAGE clone protein: Kit, kit oncogene (protein, UniProt P05532 25-979, looked up)
Mast/stem cell growth factor …: SQPSASPGEPSPPSIHPAQSELIVEAGDTLSLTCIDPDFVRWTFKTYFNEMVENKKNEWIQEKAEATRTGTYTCSNSNGLTSSIYVFVRDPAKLFLVGLPLFGKEDSDALVRCPLTDPQVSNYSLIECDGKSLPTDLTFVPNPKAGITIKNVKRAYHRLCVRCAAQRDGTWLHSDKFTLKVRAAIKAIPVVSVPETSHLLKKGDTFTVVCTIKDVSTSVNSMWLKMNPQPQHIAQVKHNSWHRGDFNYERQETLTISSARVDDSGVFMCYANNTFGSANVTTTLKVVEKGFINISPVKNTTVFVTDGENVDLVVEYEAYPKPEHQQWIYMNRTSANKGKDYVKSDNKSNIRYVNQLRLTRLKGTEGGTYTFLVSNSDASASVTFNVYVNTKPEILTYDRLINGMLQCVAEGFPEPTIDWYFCTGAEQRCTTPVSPVDVQVQNVSVSPFGKLVVQSSIDSSVFRHNGTVECKASNDVGKSSAFFNFAFKGNNKEQIQAHTLFTPLLIGFVVAAGAMGIIVMVLTYKYLQKPMYEVQWKVVEEINGNNYVYIDPTQLPYDHKWEFPRNRLSFGKTLGAGAFGKVVEATAYGLIKSDAAMTVAVKMLKPSAHLTEREALMSELKVLSYLGNHMNIVNLLGACTVGGPTLVITEYCCYGDLLNFLRRKRDSFIFSKQEEQAEAALYKNLLHSTEPSCDSSNEYMDMKPGVSYVVPTKTDKRRSARIDSYIERDVTPAIMEDDELALDLDDLLSFSYQVAKGMAFLASKNCIHRDLAARNILLTHGRITKICDFGLARDIRNDSNYVVKGNARLPVKWMAPESIFSCVYTFESDVWSYGIFLWELFSLGSSPYPGMPVDSKFYKMIKEGFRMVSPEHAPAEMYDVMKTCWDADPLKRPTFKQVVQLIEKQISDSTKHIYSNLANCNPNPENPVVVDHSVRVNSVGSSASSTQPLLVHEDA
